Substitutions are numbered along the chain they refer to.
Columns and labels:
trypsin [1] = molecular target: T1, trypsin (Bos taurus, UniProt P00760); assay: enzyme inhibition (Dixon, BAPNA)
T1 chain: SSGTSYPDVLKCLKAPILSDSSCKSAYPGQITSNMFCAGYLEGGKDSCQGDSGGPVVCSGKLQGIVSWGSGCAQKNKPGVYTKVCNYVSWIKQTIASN

alpha-chymotrypsin = alpha-chymotrypsin (Bos taurus, UniProt P00766); assay: SPR
trypsin [2] = molecular target: T1, trypsin; assay: SPR

B1: HCRG2 (protein)
chain: RGICLEPKVVGPCKARIRRFYYDSETGKCTPFIYGGCGGNGNNFETLHACRGICRA
Ki (trypsin [1]): 50 nM
Kd (alpha-chymotrypsin): 1.6 nM
Kd (trypsin [2]): 0.68 nM

B2: HCRG1 (protein)
chain: B1 chain with L5S, R16G, I17L, K28E, T30K, G38K, G41K
Ki (trypsin [1]): 28 nM
Kd (alpha-chymotrypsin): 1.8 nM
Kd (trypsin [2]): 0.22 nM
